Test results published in patent publication US20050124041A1 (YUHAN, published 2005).

Target: T1, recombinant human tumor necrosis factor-α (Biosource PHC3011, Belgium) (human, UniProt P01375 77-233)
T1 construct: Bought recombinant protein; also called hTNFα; hTNF-α
Test: competitive ELISA: TSK11 pre-incubated with soluble hTNFα, then added to hTNFα-coated wells; Scatchard plot analysis (Friguet method)
Method: In vitro binding affinity of TSK11 antibody against hTNFα was determined by ELISA assay. Here, each well was coated with 100 μl of recombinant hTNFα at a concentration of 4 μg/ml. Next, in Micro Tube (AXYGEN, U.S.A.) recombinant hTNFα was diluted with PBS solution supplemented with 0.02% bovine serum albumin to obtain the final concentration ranging from 5×10⁻⁹ M to 1×10⁻¹⁰ M. hTNFα diluents having various concentrations were mixed with 30 μg of TSK11 antibody and maintained at 37° C. for 2 hours. The mixed solution was distributed to the each well coated with the recombinant hTNFα, and incubated at 37° C. for 2 hours. Then, 100 μl of a horseradish peroxiadase substrate solution (Bio-rad, 172-1064) was added to the each well and kept at 37° C. for 3 minutes to induce color development. The absorbance of the each well was measured at 410 nm with ELISA reader (Dinatec inc., U.S.A.).
Apparent affinity was determined by calculating a reciprocal of the antigen concentration required in inhibiting 50% of the maximum binding in the competitive ELISA according to Scatchard plot analysis (Friguet E. et al., J. of Immunological Method 77: 305-319, 1985).

T1 sequence (P01375 77-233 limits assumed): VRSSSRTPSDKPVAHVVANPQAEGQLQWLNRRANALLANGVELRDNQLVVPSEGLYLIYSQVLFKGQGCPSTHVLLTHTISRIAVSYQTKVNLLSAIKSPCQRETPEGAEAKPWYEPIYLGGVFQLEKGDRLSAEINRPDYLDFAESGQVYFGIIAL

B1: monoclonal antibody produced from the hybridoma cell line TSK11 (antibody, IgG1, V domains shown)
VH: QVQLVQSGPELKKPGETVKISCKASGYTFTHYGMNWVKQAPGEGLKWMGWINTNTGEPRYDEEFKGRFAFSLETSASTAYLQINNLRREDTATYFCARYDSRGFDCWGQGTTLTVSS
VL: QIVLTQSPAIMSASLGERVTMTCTASSSISYNYFHWYQQRPGSSPKLWIYSSSNLASGVPPRISGSGSGTSYSLTISSMEAEDAATYYCHQYERSPWTFGGGTKLEIKR
notes: Mouse hybridoma antibody; also called TSK11 antibody
Binder B1 has a Kd of 1.95 nM.
